Experimental data: US20200087400A1 (EUREKA THERAPEUTICS, published 2020)

How the values were obtained:
Bio-P19 member A2E-17 = biological target: T1, Bio-P19 member A2E-17 (chain 2: C-terminal BirA substrate peptide (BSP), enzymatically biotinylated; its letters are not printed in the patent and it is left out); assay: phage ELISA, streptavidin plate, anti-M13-HRP
T1 construct: also called biotinylated control peptide A2E-17/HLA-A*02:01 monomer
Experimental: (§1) Individual phage clones from enriched phage display panning pools against PSA146/HLA-A*02:01 complex were incubated in the coated plates. Binding of the phage clones was detected by HRP-conjugated anti-M13 antibodies and developed using HRP substrate. The absorbance was read at 450 nm. […] Then, unique antibody clones were identified through DNA sequencing of ELISA-positive clones. […] T2 cells loaded with different peptides and β2M were first stained with purified scFv phage clones, followed by staining with a mouse anti-M13 mAb, and finally R-PE conjugated horse anti-mouse IgG from Vector Labs. Each step of the staining was performed for between 30-60 minutes on ice and the cells were washed twice between stainings. All 16 clones recognized PSA146-loaded T2 cells specifically. FIG. 3 provides examples of PSA146/HLA-A*02:01 specific phage clone binding to peptide-loaded T2 cells through FACS.

Bio-P19 member A2E-4 = biological target: T2, Bio-P19 member A2E-4 (chain 2 carries a C-terminal BirA substrate peptide (BSP), enzymatically biotinylated; the BSP letters are not given in the patent and are left out); assay: phage ELISA, streptavidin plate, anti-M13-HRP
T2 construct: also called biotinylated control peptide A2E-4/HLA-A*02:01 monomer
Experimental: as §1

Bio-P19 member A2E-1 = biological target: T3, Bio-P19 member A2E-1 (chain 2: C-terminal BirA substrate peptide (BSP), enzymatically biotinylated; its letters are not printed in the patent and it is left out); assay: phage ELISA, streptavidin plate, anti-M13-HRP
T3 construct: also called biotinylated control peptide A2E-1/HLA-A*02:01 monomer
Experimental: as §1

Bio-P19 member A2E-19 = biological target: T4, Bio-P19 member A2E-19 (chain 2 carries a C-terminal BirA substrate peptide (BSP), enzymatically biotinylated; the BSP letters are not given in the patent and are left out); assay: phage ELISA, streptavidin plate, anti-M13-HRP
T4 construct: also called biotinylated control peptide A2E-19/HLA-A*02:01 monomer
Experimental: as §1

Bio-P19 member A2E-6 = biological target: T5, Bio-P19 member A2E-6 (chain 2 carries a C-terminal BirA substrate peptide (BSP), enzymatically biotinylated; the BSP letters are not given in the patent and are left out); assay: phage ELISA, streptavidin plate, anti-M13-HRP
T5 construct: also called biotinylated control peptide A2E-6/HLA-A*02:01 monomer
Experimental: as §1

Bio-P19 member A2E-13 = biological target: T6, Bio-P19 member A2E-13 (chain 2: C-terminal BirA substrate peptide (BSP), enzymatically biotinylated; its letters are not printed in the patent and it is left out); assay: phage ELISA, streptavidin plate, anti-M13-HRP
T6 construct: also called biotinylated control peptide A2E-13/HLA-A*02:01 monomer
Experimental: as §1

Bio-P19 member A2E-15 = biological target: T7, Bio-P19 member A2E-15 (chain 2: C-terminal BirA substrate peptide (BSP), enzymatically biotinylated; its letters are not printed in the patent and it is left out); assay: phage ELISA, streptavidin plate, anti-M13-HRP
T7 construct: also called biotinylated control peptide A2E-15/HLA-A*02:01 monomer
Experimental: as §1

Bio-P19 member A2E-21 = biological target: T8, Bio-P19 member A2E-21 (chain 2 carries a C-terminal BirA substrate peptide (BSP), enzymatically biotinylated; the BSP letters are not given in the patent and are left out); assay: phage ELISA, streptavidin plate, anti-M13-HRP
T8 construct: also called biotinylated control peptide A2E-21/HLA-A*02:01 monomer
Experimental: as §1

Bio-P19 member A2E-10 = biological target: T9, Bio-P19 member A2E-10 (chain 2: C-terminal BirA substrate peptide (BSP), enzymatically biotinylated; its letters are not printed in the patent and it is left out); assay: phage ELISA, streptavidin plate, anti-M13-HRP
T9 construct: also called biotinylated control peptide A2E-10/HLA-A*02:01 monomer
Experimental: as §1

Bio-P19 member A2E-5 = biological target: T10, Bio-P19 member A2E-5 (chain 2 carries a C-terminal BirA substrate peptide (BSP), enzymatically biotinylated; the BSP letters are not given in the patent and are left out); assay: phage ELISA, streptavidin plate, anti-M13-HRP
T10 construct: also called biotinylated control peptide A2E-5/HLA-A*02:01 monomer
Experimental: as §1

Bio-P19 member A2E-7 = biological target: T11, Bio-P19 member A2E-7 (chain 2 (heavy): C-terminal BirA substrate peptide, biotinylated there by BirA; tag letters not given, left out); assay: phage ELISA, streptavidin plate, anti-M13-HRP
T11 construct: also called biotinylated control peptide A2E-7/HLA-A*02:01 monomer; not shown: BirA substrate peptide (BSP) tag at the C-terminus of the heavy chain
Experimental: as §1

Bio-P19 member A2E-16 = biological target: T12, Bio-P19 member A2E-16 (chain 2: C-terminal BirA substrate peptide (BSP), enzymatically biotinylated; its letters are not printed in the patent and it is left out); assay: phage ELISA, streptavidin plate, anti-M13-HRP
T12 construct: also called biotinylated control peptide A2E-16/HLA-A*02:01 monomer
Experimental: as §1

Bio-P19 member A2E-11 = biological target: T13, Bio-P19 member A2E-11 (chain 2: C-terminal BirA substrate peptide (BSP), enzymatically biotinylated; its letters are not printed in the patent and it is left out); assay: phage ELISA, streptavidin plate, anti-M13-HRP
T13 construct: also called biotinylated control peptide A2E-11/HLA-A*02:01 monomer
Experimental: as §1

Bio-P19 member A2E-8 = biological target: T14, Bio-P19 member A2E-8 (chain 2 (heavy): C-terminal BirA substrate peptide, biotinylated there by BirA; tag letters not given, left out); assay: phage ELISA, streptavidin plate, anti-M13-HRP
T14 construct: also called biotinylated control peptide A2E-8/HLA-A*02:01 monomer; not shown: BirA substrate peptide (BSP) tag at the C-terminus of the heavy chain
Experimental: as §1

Bio-P19 member A2E-14 = biological target: T15, Bio-P19 member A2E-14 (chain 2: C-terminal BirA substrate peptide (BSP), enzymatically biotinylated; its letters are not printed in the patent and it is left out); assay: phage ELISA, streptavidin plate, anti-M13-HRP
T15 construct: also called biotinylated control peptide A2E-14/HLA-A*02:01 monomer
Experimental: as §1

[1] = biological target: T16, PSA 146-154 peptide/HLA-A*02:01 complex on the cell surface (human); assay: flow cytometry, phage on T2 cells, anti-M13 + R-PE anti-mouse IgG
T16 construct: also called PSA146/HLA-A*02:01; PSA146-loaded T2 cells
Experimental: as §1

[2] = biological target: T17, HLA-A*02:01 on T2 cells with no peptide loaded (human); assay: as above
T17 construct: TAP-deficient T2 cells, no peptide loaded from outside; also called T2 cells without peptide loading
Experimental: as §1

B1: PSA146/HLA-A*02:01-specific scFv phage clone #18 (scFv, V domains shown)
VH: QVQLVQSGAEVKKPGESLKISCKGSGYSFTSYWIGWVRQMPGKGLEWMGIIYPGDSDTRYSPSFQGQVTISADKSISTAYLQWSSLKASDTAMYYCARWGSRGFLDAFDIWGQGTMVTVSS
VL: QSVVTQPPSVSAAPGQRVTISCSGSSSNIGNNYVSWYQQLPGAAPRLLIYDNDKRPSGIPDRFSGSKSGTSATLGITGLQTGDEADYYCGTWDSSLSSGVFGGGTKLTVLG
- binding result (Bio-P19 member A2E-17): no binding
- binding result (Bio-P19 member A2E-4): no binding
- binding result (Bio-P19 member A2E-1): no binding
- binding result (Bio-P19 member A2E-19): no binding
- binding result (Bio-P19 member A2E-6): no binding
- binding result (Bio-P19 member A2E-13): no binding
- binding result (Bio-P19 member A2E-15): no binding
- binding result (Bio-P19 member A2E-21): no binding
- binding result (Bio-P19 member A2E-10): no binding
- binding result (Bio-P19 member A2E-5): no binding
- binding result (Bio-P19 member A2E-7): no binding
- binding result (Bio-P19 member A2E-16): no binding
- binding result (Bio-P19 member A2E-11): no binding
- binding result (Bio-P19 member A2E-8): no binding
- binding result (Bio-P19 member A2E-14): no binding
- binding result [1]: binds
- binding result [2]: no binding
